Assay results reported in US11931404B2, “Use of ultrarapid acting insulin” (MannKind Corporation, priority 2014, dated 2024).

Tests used:
[1] = human, in vivo
Method: The insulin-FDKP formulation is administered to the subjects by oral inhalation using a MEDTONE® dry powder inhaler (MannKind Corp.). Following the completion of the meal challenge, the data was analyzed as per the statistical analysis plan. […] The study was amended (A1) and included 12 subjects (10 were reenrolled from the first meal challenge), and only two treatments, which were 10 U lispro and 60 and 90 U TI. The doses were selected based on the relative bioavailability observed following the first meal challenge (OP), where under an assumption of linear kinetics, 10 U lispro and 60 U TI would result in similar exposure. The 90 U dose group was included to assess the effect of the highest dose group of TI studied in Phase 3 trials. Six of the 12 subjects received 60 U TI and the other 6 subjects received 90 U TI. All 12 subjects received 10 U lispro in a crossover fashion. Methods and results below are described in terms of the Original Protocol (OP), which includes the meal challenge in 18 subjects with three treatments (EXUBERA®, lispro and TI) and Amendment 1 (A1), which includes 12 subjects treated with only TI and lispro. […] The subjects were screened and evaluated before, during and after the experiments and their data analyzed as described below. […]

[2] = test system: subjects with type 2 diabetes; assay: Meal challenge test, Amendment 1 (A1): blood glucose, endogenous glucose production, glucose disappearance; assay type: in vivo, human; conditions: 60 U and 90 U insulin-FDKP groups, 10 U lispro, FIG. 11
Method: Following the completion of the meal challenge, the data was analyzed as per the statistical analysis plan. […] The study was amended (A1) and included 12 subjects (10 were reenrolled from the first meal challenge), and only two treatments, which were 10 U lispro and 60 and 90 U TI. The doses were selected based on the relative bioavailability observed following the first meal challenge (OP), where under an assumption of linear kinetics, 10 U lispro and 60 U TI would result in similar exposure. The 90 U dose group was included to assess the effect of the highest dose group of TI studied in Phase 3 trials. Six of the 12 subjects received 60 U TI and the other 6 subjects received 90 U TI. All 12 subjects received 10 U lispro in a crossover fashion. Methods and results below are described in terms of the Original Protocol (OP), which includes the meal challenge in 18 subjects with three treatments (EXUBERA®, lispro and TI) and Amendment 1 (A1), which includes 12 subjects treated with only TI and lispro. […] The subjects were screened and evaluated before, during and after the experiments and their data analyzed as described below. […] Blood glucose concentrations were measured at regular intervals from arterialized venous blood samples. […]

insulin lispro
median tmax of insulin concentrations [1]: 1.25 h
time at which glucose disappearance rate peaked after dosing [2]: about 100 minutes
